Assay results from the nanobody polyreactivity screen of Harvey et al. (2022).

test: yeast display, Sf9 membrane polyspecificity reagent, FACS + sequencing; frameworks hold sequencing errors
In short: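 Nanobodies came from a synthetic yeast display library in Saccharomyces cerevisiae BJ5465, induced with galactose for 36–48 hours and stained for 1 hour at 4 °C with 10% biotinylated, detergent-solubilized Sf9 membrane reagent. Cells were enriched on streptavidin microbeads and then FACS-sorted, with low and high (top ~1%) gates set on anti-HA fluorescence for expression and streptavidin fluorescence for reagent binding. Each polyreactivity label reflects the gate a clone came from. Genes were amplified by colony PCR, sequenced by MiSeq 2 × 250 and filtered by CDR length.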

Row | Sequence | polyreactivity (PSR sort gate)
1 | QVQLVESGGGLVQAGGSLRLSCAASGRIIYENAMGWYRQAPGKEREFVAAITGSGGSTYYADSVKGRFTISRDNAKNTVYLQMISLKPEDTEVYYCAAPLSSYWVYIVRYGYDYWGQGTQVTVSS | low polyreactivity
2 | QVQLVESGGGLVQAGGSLRLSCAASGRIIYGYAMGWYRQEPGKERELVAAITATYYGDSVKGRFTISRDNAKNTVYLQMNSLKPEDTAVYYCNAYLCPKQPLSPPDPTFEGGYWGQCTQVTVSS | low polyreactivity
3 | QVQLVESGGGLVQAGGSLRLSCAASGRIIYNYAMGWYRQAPGKERELVAAITRSGGSTYYADSVKGRFTISRDNAKNTVYLQMNSLKPEDTAVYYCNATRGFGPPYFYWGQGTQVTVSS | high polyreactivity
4 | QVQLVESGGGLVQAGGSLRLSCAASGRIIYPYVMGWYRQAHGKERELVAAITRSGDRTYYADSVKGRFTISRDNAKNTVYLQMNSLKPEDTAVYYCAATNVRGVYYWGQGTQVTVSS | high polyreactivity
5 | QVQLVESGGGLVQAGGSLRLSCAASGRIIYYNAMGWYRQAPGKERDLVARISSGGSTNYADSVKGRFTFSRDNAKNTVYLQMISLKPEDTAGDYCAVAKGGLAWGVGRAGRYDYWGQGTQVTLSS | low polyreactivity
6 | QVQLVESGGGLVQAGGSLRLSCAASGRILDINTMRGYRHPPGKERELVAAITWSGVSTYYADSVKGRFTISRDNAKNTVYLQMNSLKPEDTAVYYCAARPYYTWRYLPTNSGDYWGQGTQETVSS | low polyreactivity
7 | QVQLVESGGGLVQAGGSLRLSCAASGRILDYNAMGWYRPAPGKERELVAAITRRGGSTYYADSVKGRFTISRDNAKNTVYLQMNSLKPEDTAVYYCNARWSTTAHTRFGYWGQGTQVTVSS | low polyreactivity
8 | QVQLVESGGGLVQAGGSLRLSCAASGRILDYNAMGWYRQAPGKERELVAAITYTGGDTYYADSVKGRFTISRDNAKNTVYLQMNSLKPEDTAVYYCSADFGPYYRFDYWGQGTQVTVSS | low polyreactivity
9 | QVQLVESGGGLVQAGGSLRLSCAASGRILFGYAMGWYRQAPGKERELVADITSTGSTNYADSVKGRFTISRDNAKNTVYLQMNSLKPEDTAVYYCNARRESYYQRYRVDYWGQGTQVNVSS | low polyreactivity
10 | QVQLVESGGGLVQAGGSLRLSCAASGRILFRYGMGWYRQAPGKERELVARISWSGGNTHYADSVKGRFTISRDNAKNTVYLQMNSLKPDDTAVYYCNAYYTYWYPRYDYWGQGTQVTVSS | low polyreactivity
11 | QVQLVESGGGLVQAGGSLRLSCAASGRILGDNVMGWYRQAPGKERELVAAISSGSGSTYYADSVKGRFTISRDNAKNTVYLQMNSLKPEDTAVYYCAAGPYIYPRYDYWGQGTQVTVSS | low polyreactivity
12 | QVQLVESGGGLVQAGGSLRLSCAASGRILGDYAMGWYRQAPGKEREFVAASDYNGGSTNYADSVKGRFTISRDNAKNTVYLQMNSLKPEETAVYYCAAPGFPSRNGFGYWGQGTQVTVSS | low polyreactivity
13 | QVQLVESGGGLVQAGGSLRLSCAASGRILGKNAMGWYRQAPRKERELVAAISGRGDRTHYADSVKGRFTISRDNAKNTVYLHMNSLKPEDTAVYYCAKDHHPPAKGQSVSLGYDYWGQGTQVTVSS | low polyreactivity
14 | QVQLVESGGGLVQAGGSLRLSCAASGRILHANAMGWYRQAPGKERELVAAITGRGGSTYYADSVKGRFTISRDNAKITVYLQMNSLKPEDTAVYYCAARVKQAGYRMDYWVQGTQVTVSS | high polyreactivity
15 | QVQLVESGGGLVQAGGSLRLSCAASGRILHGYAMGWYRQAPGKERELVAAITSSGGRTYYADSVKGRFTISRDNAKNTVYLQMNSLKPEDTAVYYCAADRPAYRTGDSKYDYWGQGTQVTVSS | low polyreactivity
16 | QVQLVESGGGLVQAGGSLRLSCAASGRILIRNAMGWYRQAPGKERELVAAINRGGGSTYYADSVKGRFTISRDNAKNTVYLQMNSLKPEDTAVYYCAADRKAGYSRVDGDYWGQGTQVTVSS | low polyreactivity
17 | QVQLVESGGGLVQAGGSLRLSCAASGRILIWYAMGWYRQAPGKERELVAAINWSGSSTSYADSVKGRFTISRDNAKNTVYLQMNSLKPEDTAVYYCAAGRLTTYTPGNRYYYWGQGTQVTVSS | high polyreactivity
18 | QVQLVESGGGLVQAGGSLRLSCAASGRILKYNALGWYRQAPGKERELVAAISYRGGSTYYADSVKGRFTISRDNAKNTVYLQMNSLKPEDTAVYYCNAGGGILNGPLFDYWGQGTQVTVSS | low polyreactivity
19 | QVQLVESGGGLVQAGGSLRLSCAASGRILLHYAMGWYRQAPGKERELVAAITSTGGTTYYADSVKGRFTISRDYAKNTFYLQMNSLKPEDTAVYYCAAKRQDSWGGTYGYWGQGTQVTVSS | low polyreactivity
20 | QVQLVESGGGLVQAGGSLRLSCAASGRILLTYAMGWYRPAPGKERELVAAISSDSRTYYADSVKGRFTISRDNAQNTVYLQMNSLKPEDTAVYYCVRRRYKYDYWGQGTQVTVSS | low polyreactivity
21 | QVQLVESGGGLVQAGGSLRLSCAASGRILLTYAMGWYRQAPGKERELVAAISSDSRTYYADSVKGRFTISRDNAKNTVYLQMNSLKPEDTAVYYCVRRRYKYDYWGQGTQVTVSS | low polyreactivity
22 | QVQLVESGGGLVQAGGSLRLSCAASGRILPLYAMGWYRQAPGKDRELVALIDSGGSTNYADSVKGRFTISRDNAKNTVYLQMNSLKPEDTAVYYCAAVVTAQAYAYFTYGYDYWGQGTQVTVSS | low polyreactivity

Row | Sequence | polyreactivity (PSR sort gate)
23 | QVQLVESGGGLVQAGGSLRLSCAASGRILPLYAMGWYRQAPGKERELVARIDSGGSTNYADSVKGRFTISRDNAKNTVYLQMNSLKPEDTAVYYCAAVVTAQAYAYFTYGYDYWGQGTQVTVSS | low polyreactivity
24 | QVQLVESGGGLVQAGGSLRLSCAASGRILPRNAMGRYRQAPGKEREVVAGIYSDGSTNYADSVKGRFTISRDNAKNTVYLQMKSLKPEETAVYYCAKQFSSYQYFIILISPGDYWGQGTQVTVSS | low polyreactivity
25 | QVQLVESGGGLVQAGGSLRLSCAASGRILPSNAMGWYRQAPGKERELVAGITSGGSTDYADSVKGRFTISRDNAKNTVFLQMNSLKPEDTAVYYCNKPFPYYPDGPNGYDYWGQGTQVTVSS | low polyreactivity
26 | QVQLVESGGGLVQAGGSLRLSCAASGRILPVYAMGWYRQAPGKERELVAAINDSGTNTNYADSVKGRFTISRDNAKNTVYLHMNSLKPEDTAVYYCAASSGPRQGYSYRPHKSYGSWGQGTQVTVSS | low polyreactivity
27 | QVQLVESGGGLVQAGGSLRLSCAASGRILPYYAMGWYRQAPGKERELVAAITSGGSTYYADSVKGRFTISRDNAKNTVSLQMNSLKPEDTAVYYCATDVDKSLYDYWGQGTQVTVSS | low polyreactivity
28 | QVQLVESGGGLVQAGGSLRLSCAASGRILQFNAMGWYRQATGKERELVAAISTSGGRTYYADSVKGRFTISRDNAKNTVYLQMISLKPEDTAVYDCNAVAYKLMGYWGQGTQVTVSS | high polyreactivity
29 | QVQLVESGGGLVQAGGSLRLSCAASGRILQVEYAMGWNIQAPGKERELVAAITESDGSTSYADSVKGRFTISRDNAKNTVYLQMNSLKPEDTAVYYCNVVRGYPNGGYDYWGQGTQVTVSS | low polyreactivity
30 | QVQLVESGGGLVQAGGSLRLSCAASGRILRDYDMGWYRQATGKERELVAAINWSDGSTYYADSVKGRFTISRDNAKNTVYLQMNSLKPEDTAVYYCAASRWRPLERGTTWLNDYWGQGTQVTVSS | low polyreactivity
31 | QVQLVESGGGLVQAGGSLRLSCAASGRILRGYVMGWSRQAPGKERELVATITGRGGSTYYADSVKGRFTISRDNAKNTVYLQMNSLKPEDTAVYYCNKDGYPYFGRSEYWGQGTQVTVSS | low polyreactivity
32 | QVQLVESGGGLVQAGGSLRLSCAASGRILRTNAMGWYRQAPGKERELVAAISSDGSTYYADSVKGRFTISRDNAKNTVYLQMNSLKPEDTAVYYCAARLFYRGPRFDYWGQGTQVTVSS | low polyreactivity
33 | QVQLVESGGGLVQAGGSLRLSCAASGRILRYNAMGWYRQAPGKERELVATITRSAGRTYSADSVKGRFTISRDNAKNTVYLQMNSLKPEDTAVYYCAKDTDISTLHSKGRAKSRYDYWGQGTQVTVSS | low polyreactivity
34 | QVQLVESGGGLVQAGGSLRLSCAASGRILRYYAMGGYRQAPGKERELVAAITSGGSTTYYADSVKGRFTISRDNAKNTVYLQMNSLKPEDTAVYYCAADRARSSAKYDYWGQGTQVTVSS | low polyreactivity
35 | QVQLVESGGGLVQAGGSLRLSCAASGRILSLYAMGWYRPPPGKERELVAAIRWSGSRTYYADSVKGRFTISRDNAKNTVYLQMNSLKPEDTAVYYCNAWYRLLRSSDYYWGQGTQVTVSS | high polyreactivity
36 | QVQLVESGGGLVQAGGSLRLSCAASGRILTLYAMGWYRQAPGKERELVAGINRGDVSTYYADSVKGRFTISRDNAKNSVYLQMNSLKPEDTAVYYCYADPPPDYYPDKDNYWGQGSQVTVSS | low polyreactivity
37 | QVQLVESGGGLVQAGGSLRLSCAASGRILTSNAMGWYRQAPGTEMELVAAISWSGGSTYYADSVKGRFTISRDNAKNTVYLQMNSLKPEDTAVYYCAAVSYYASDYRYDYWGQGTQVTVSS | low polyreactivity
38 | QVQLVESGGGLVQAGGSLRLSCAASGRILTTNAMGWYRQAPGKERELVAAITRSGGRTYYADSVKGRFTISRDNAKNTVYLQMNSLKPEDTAVYYCAAATSPGIYDYWGQGTQVTVSS | high polyreactivity
39 | QVQLVESGGGLVQAGGSLRLSCAASGRILVHNAMGWYRQAPGKERELVAVITARGASTYYADSVKGRFTISRDNAKNTVYLQMNSLKPEDTAVYYCATDKRPKYYNQYDYWGQGTQVTVSS | low polyreactivity
40 | QVQLVESGGGLVQAGGSLRLSCAASGRILVLNAMGWYRQAPGKERELVADITSGGSTYYADSVKGRFTISRDNAKNTVYLQMNSLKPEDTAVYYCAADWNTYPDYQQSYFVSYEYNYWGQGTQVTVSS | low polyreactivity
41 | QVQLVESGGGLVQAGGSLRLSCAASGRILVRNAMGWYRQAPGQERELVAAITRTGASTYYADSVKGRFTISRDNPKNTVYLQMNSLKPEDTAVYYCAAVWGLPYWVYRYDYWGQGNQVTVSS | high polyreactivity
42 | QVQLVESGGGLVQAGGSLRLSCAASGRILWWYAMAWYRQAPGKERELVATITYSGGSTYADSVKGRFTISRDNAKNTVYLQMNSLKPVDTAVYYCAARLALYYGKSVYWGQGTQVTVSS | high polyreactivity
43 | QVQLVESGGGLVQAGGSLRLSCAASGRILWYYAMGWYRQAPGKERELVASISWSGGRTYYADSVKGRFTISRDNAKNTVYLQMNSLKPEDTAVYYCAAQLTRWRKPGDMEYWGQGTQVTVSS | high polyreactivity
